# Assay results from publication doi:10.1101/283192, “Disrupted structure and aberrant function of CHIP mediates the loss of motor and cognitive function in preclinical models of cerebellar CHIPopathy” (bioRxiv, 2018).
# Target: the molecule itself
# Assay: SEC-MALS; GE Superdex 200 column, Wyatt DAWN HELEOS-II and T-Rex refractometer; 100 µl of 0.5 mg/ml of each sample loaded
Protein,stoichiometry N,binding result
"CHIP-T246M, His-tagged recombinant (natural protein, human, UniProt Q9UNE7 1-303, looked up, CHIP (STUB1), human, full-length protein with the SCAR16 patient mutation T246M; T246M is a mutation found in patients (p.T246M); also called T246M CHIP; source: E. coli BL21(DE3), purified (HisTrap HP); copies: 10-12) MKGKEEKEGGARLGAGGGSPEKSPSAQELKEQGNRLFVGRKYPEAAACYGRAITRNPLVAVYYTNRALCYLKMQQHEQALADCRRALELDGQSVKAHFFLGQCQLEMESYDEAIANLQRAYSLAKEQRLNFGDDIPSALRIAKKKRWNSIEERRIHQESELHSYLSRLIAAERERELEECQRNHEGDEDDSHVRAQQACIEAKHDKYMADMDELFSQVDEKRKKRDIPDYLCGKISFELMREPCIMPSGITYDRKDIEEHLQRVGHFDPVTRSPLTQEQLIPNLAMKEVIDAFISENGWVEDY",10 to 12,–
"CHIP-H260Q, His-tagged recombinant (natural protein, human, UniProt Q9UNE7 1-303, looked up, CHIP (STUB1), human, full-length protein with the synthetic mutation H260Q; source: E. coli BL21(DE3), purified (HisTrap HP)) MKGKEEKEGGARLGAGGGSPEKSPSAQELKEQGNRLFVGRKYPEAAACYGRAITRNPLVAVYYTNRALCYLKMQQHEQALADCRRALELDGQSVKAHFFLGQCQLEMESYDEAIANLQRAYSLAKEQRLNFGDDIPSALRIAKKKRWNSIEERRIHQESELHSYLSRLIAAERERELEECQRNHEGDEDDSHVRAQQACIEAKHDKYMADMDELFSQVDEKRKKRDIPDYLCGKISFELMREPCITPSGITYDRKDIEEQLQRVGHFDPVTRSPLTQEQLIPNLAMKEVIDAFISENGWVEDY",–,binds
